Here are results for 16 molecules from patent US20060257938A1, “Method of screening for drugs that block ligand binding to a lipid binding protein” (priority 2005, published 2006).

Substitutions are numbered along the chain they refer to.

B1: 18I 31Y 72A (protein, listed as Rattus norvegicus)
chain: AFDGTWKVDRNENYEKFIEKMGINVVKRKLYAHDNLKLTITQEGNKFTVKESSNFRNIDVVFELGVDFAYSAADGTELTGTWTMEGNKLVGKFKRVDNGKELIAVREISGNELIQTYTYEGVEAKRIFKKE
modifications: PEPTIDE (1)...(131) wild-type rat intestinal fatty acid binding protein
B2: 72T 74S (protein, listed as Rattus norvegicus)
chain: B1 chain with I18M, Y31G, A72T, D74S
modifications: PEPTIDE (1)...(131) wild-type rat intestinal fatty acid binding protein
B3: 18I 31L 73G 72A (protein, listed as Rattus norvegicus)
chain: B1 chain with Y31L, A73G
modifications: PEPTIDE (1)...(131) wild-type rat intestinal fatty acid binding protein
B4: 72A 74N (protein, listed as Rattus norvegicus)
chain: B1 chain with I18M, Y31G, D74N
modifications: PEPTIDE (1)...(131) wild-type rat intestinal fatty acid binding protein
B5: 14L 31W 117V 72A (protein, listed as Rattus norvegicus)
chain: B1 chain with Y14L, I18M, Y31W, Y117V
modifications: PEPTIDE (1)...(131) wild-type rat intestinal fatty acid binding protein
B6: 18V 31V 73I 72A (protein, listed as Rattus norvegicus)
chain: B1 chain with I18V, Y31V, A73I
modifications: PEPTIDE (1)...(131) wild-type rat intestinal fatty acid binding protein
B7: 18I 31Y 73G 72A (protein, listed as Rattus norvegicus)
chain: B1 chain with A73G
modifications: PEPTIDE (1)...(131) wild-type rat intestinal fatty acid binding protein
B8: 14R 18L 31S 73F 117E 72A (protein, listed as Rattus norvegicus)
chain: B1 chain with Y14R, I18L, Y31S, A73F, Y117E
modifications: PEPTIDE (1)...(131) wild-type rat intestinal fatty acid binding protein
B9: 18I 55G 73M 72A (protein, listed as Rattus norvegicus)
chain: B1 chain with Y31G, F55G, A73M
modifications: PEPTIDE (1)...(131) wild-type rat intestinal fatty acid binding protein
B10: 14L 18L 73W 117S 72A (protein, listed as Rattus norvegicus)
chain: B1 chain with Y14L, I18L, Y31G, A73W, Y117S
modifications: PEPTIDE (1)...(131) wild-type rat intestinal fatty acid binding protein
B11: 14R 18L 73L 117D 72A (protein, listed as Rattus norvegicus)
chain: B1 chain with Y14R, I18L, Y31G, A73L, Y117D
modifications: PEPTIDE (1)...(131) wild-type rat intestinal fatty acid binding protein
B12: 18V 31Y 55I 73G 72A (protein, listed as Rattus norvegicus)
chain: B1 chain with I18V, F55I, A73G
modifications: PEPTIDE (1)...(131) wild-type rat intestinal fatty acid binding protein
B13: 38H 62W 106V 117A 72A (protein, listed as Rattus norvegicus)
chain: B1 chain with I18M, Y31G, L38H, F62W, R106V, Y117A
modifications: PEPTIDE (1)...(131) wild-type rat intestinal fatty acid binding protein
B14: 18I 31L 72A (protein, listed as Rattus norvegicus)
chain: B1 chain with Y31L
modifications: PEPTIDE (1)...(131) wild-type rat intestinal fatty acid binding protein
B15: 14L 18L 31S 73W 117V 72A (protein, listed as Rattus norvegicus)
chain: B1 chain with Y14L, I18L, Y31S, A73W, Y117V
modifications: PEPTIDE (1)...(131) wild-type rat intestinal fatty acid binding protein
B16: 38W 106H 117A 72A (protein, listed as Rattus norvegicus)
chain: B1 chain with I18M, Y31G, L38W, R106H, Y117A
modifications: PEPTIDE (1)...(131) wild-type rat intestinal fatty acid binding protein

One experiment in a line: Probe fluorescence ratio response to arachidonic acid relative to ADIFAB2. The experiment is classed as binding. The following applies: arachidonic acid; response relative to ADIFAB2. An outline of the steps:
(§1)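 Each fatty acid's response was expressed relative to ADIFAB2, the rI-FABP-L72A probe, as ΔR/ΔRreference. ΔR is the change in the background-corrected two-wavelength intensity ratio R=Fλ1/Fλ2 from its analyte-free baseline R0. Emission was read near about 420-480 nm for unbound and about 495-580 nm for FFA-bound probe.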
Turning to B1, the “DR/DR AA” value was 2.205.
The same measure, in the same setting: with B2 the figure was 2.035; with B3, 0.981; with B4, 1.614.
Still for that read-out and setting: with B5 the figure was 1.972; with B6, 0.863; with B7, 1.796.
On the same count and under the same terms, for B8 the value was 1.241; for B9, 0.895; for B10, 1.010.
For the molecule B11, the “DR/DR AA” value was found to be 1.029.
On the same count and under the same terms, with B12 the figure was 1.007; with B13, 2.007; with B14, 1.054.
The same measure, in the same setting: with B15 the figure was 1.458; with B16, 1.326.

Another experiment can be described thus: Probe fluorescence ratio response to oleic acid relative to ADIFAB2. The experiment is classed as binding. The following applies: response relative to ADIFAB2. In short, it runs like this:
as §1
B1: the “DR/DR OA” value is on record as 2.096.
Same read-out and setting: for B2 the value was 2.252.
Still for that read-out and setting: for B3 the value was 0.595; for B4, 1.629; for B5, 1.580.
Same read-out and setting: with B6 the figure was 0.670.
Regarding B7, the “DR/DR OA” value was 1.632.
Still for that read-out and setting: for B8 the value was 1.146.
On the same count and under the same terms, for B9 the value was 0.574; for B10, 0.374; for B11, 0.847.
The same measure, in the same setting: for B12 the value was 0.994; for B13, 1.239.
Take B14: the “DR/DR OA” value is on record as 0.719.
On the same count and under the same terms, with B15 the figure was 1.208; with B16, 0.831.

A short description of a further experiment: Probe fluorescence ratio response to stearic acid relative to ADIFAB2. The experiment is classed as binding. The following applies: response relative to ADIFAB2. In short, it runs like this:
as §1
For the molecule B1, the “DR/DR SA” value is 0.994.
The same measure, in the same setting: for B2 the value was 1.779; for B3, 0.267; for B4, 1.299.
Still for that read-out and setting: for B5 the value was 0.742.
With B6, the “DR/DR SA” value is 0.311.
On the same count and under the same terms, for B7 the value was 0.860.
On the same count and under the same terms, for B8 the value was 0.378.
The same measure, in the same setting: with B9 the figure was 0.360.
Consider B10, for which the “DR/DR SA” value is recorded as −0.005.
The same measure, in the same setting: with B11 the figure was 0.213.
Same read-out and setting: with B12 the figure was −0.094; with B13, 0.947; with B14, 0.305.
With B15, the “DR/DR SA” value came to 0.329.
Still for that read-out and setting: for B16 the value was 0.071.

A further experiment can be described thus: Probe fluorescence ratio response to linoleic acid relative to ADIFAB2. The following applies: response relative to ADIFAB2. The experiment is classed as binding. In short, it runs like this: as §1
Turning to B1, the “DR/DR LA” value is listed as 2.790.
Same read-out and setting: with B2 the figure was 2.469; with B3, 1.146; with B4, 1.681.
The same measure, in the same setting: with B5 the figure was 2.027; with B6, 1.151.
The same measure, in the same setting: with B7 the figure was 2.559; with B8, 1.947; with B9, 1.127.
As to B10, the “DR/DR LA” value came out at 1.385.
Same read-out and setting: for B11 the value was 1.766; for B12, 1.220; for B13, 1.337.
Consider B14, for which the “DR/DR LA” value is listed as 1.198.
On the same count and under the same terms, for B15 the value was 1.569; for B16, 1.248.

Another experiment in a line: Probe fluorescence ratio response to palmitoleic acid relative to ADIFAB2. As to conditions: response relative to ADIFAB2. It is filed as binding. In short, it runs like this:
as §1
As to B1, the “DR/DR POA” value came out at 2.639.
Consider B2, for which the “DR/DR POA” value is 2.471.
Same read-out and setting: for B3 the value was 1.377; for B4, 1.536.
Regarding B5, the “DR/DR POA” value stood at 1.768.
Take B6: the “DR/DR POA” value is reported as 1.334.
Same read-out and setting: with B7 the figure was 2.637; with B8, 1.290; with B9, 1.201.
The same measure, in the same setting: for B10 the value was 0.750; for B11, 0.801.
As to B12, the “DR/DR POA” value was 1.106.
Same read-out and setting: with B13 the figure was 1.145; with B14, 1.187; with B15, 1.356.
For B16, the “DR/DR POA” value is reported as 1.098.

A further experiment is described as follows: Probe fluorescence ratio response to linolenic acid relative to ADIFAB2. It is filed as binding. As to conditions: response relative to ADIFAB2. In short, it runs like this:
as §1
On to B1, for which the “DR/DR LNA” value was 2.813.
The same measure, in the same setting: with B2 the figure was 2.621.
On the same count and under the same terms, with B3 the figure was 1.525; with B4, 1.701; with B5, 1.894.
Still for that read-out and setting: for B6 the value was 1.531.
As for B7, the “DR/DR LNA” value is given as 2.706.
Still for that read-out and setting: with B8 the figure was 2.296; with B9, 1.284; with B10, 1.499.
Same read-out and setting: with B11 the figure was 1.790; with B12, 1.228; with B13, 1.796.
Regarding B14, the “DR/DR LNA” value is recorded as 1.384.
Still for that read-out and setting: with B15 the figure was 1.631.
On the same count and under the same terms, with B16 the figure was 1.397.

Another experiment in a line: Probe fluorescence ratio response to palmitic acid relative to ADIFAB2. The experiment is classed as binding. As to conditions: response relative to ADIFAB2. In short, it runs like this: as §1
B1: the “DR/DR PA” value is listed as 1.762.
For the molecule B2, the “DR/DR PA” value is 2.209.
On to B3, for which the “DR/DR PA” value stood at 1.137.
Still for that read-out and setting: for B4 the value was 1.308; for B5, 1.304.
Still for that read-out and setting: for B6 the value was 1.302.
Still for that read-out and setting: with B7 the figure was 1.886; with B8, 0.693; with B9, 1.137.
As to B10, the “DR/DR PA” value is listed as 0.259.
Still for that read-out and setting: with B11 the figure was 0.294.
As to B12, the “DR/DR PA” value was found to be 0.780.
As to B13, the “DR/DR PA” value worked out at 1.002.
Same read-out and setting: with B14 the figure was 1.182; with B15, 0.692; with B16, 0.426.
